Measured values reported in PMC2991502 (Cytoskeleton (Hoboken, N.J.), 2010).

Molecular target: Rabbit skeletal muscle actin (rabbit, UniProt P68135 1-377)
Test: co-sedimentation

B1: FRL2 FH1-FH2 I649A (amino acids 447-945 of the mouse protein) (domain or fragment)
chain: TSNQVHTLRRLIKEKEEAFQRRCHLEPSARGLESMGGEALARVGPTELTEGIPPSDLDLLAPAPPTEETLPLPPPPAPPLPPPPPPLPDKCPPAPPLPGAAPSVVLTVGLSAIRIKKPIKTKFRLPVFNWTALKPNQINGTVFSELDDEKILEDLDLDRFEELFKTKAQGPALDLICSKNKTAQKAASKVTLLEANRAKNLAATLRKAGRSAEEICRAIHTFDLQTLPVDFVECLMRFLPTEAEVKLLRQYERERQPLEELAAEDRFMLLFSKVERLTQRMAGMAFLGNFQDNLQMLTPQLNAIIAASASVKSSQKLKQMLEIILALGNYMNSSKRGAVYGFKLQSLDLLLDTKSTDRKMTLLHFIALTVKEKYPELANFWQELHFVEKAAAVSLENVLLDVKELGRGMELIRRECSIHDNSVLRNFLSTNEGKLDKLQRDAKTAEEAYNAVVRYFGESPKTTPPSVFFPVFVRFIRSYKEAEQENEARKKQEEVMREK
Q: Does B1 bind?
A: binds
